Molecular target: AcoD, ATP-dependent DMSP lyase of Psychrobacter sp. D2 (Psychrobacter sp. D2)
Test: SEC

- stoichiometry N: 2
Substance: AcoD, ATP-dependent DMSP lyase of Psychrobacter sp. D2 (enzyme)
